Experimental data from paper PMC3169412, “Structure of 3-ketoacyl-(acyl-carrier-protein) reductase from Rickettsia prowazekii at 2.25 Å resolution” (Acta Crystallographica Section F: Structural Biology and …, 2011).

Target: the molecule itself
Assay: crystal structure

B1: 3-ketoacyl-(acyl-carrier-protein) reductase (FabG) from Rickettsia prowazekii strain Madrid E (enzyme)
chain: MIDLTGKTSLITGASSGIGSAIARLLHKLGSKVIISGSNEEKLKSLGNALKDNYTIEVCNLANKEECSNLISKTSNLDILVCNAGITSDTLAIRMKDQDFDKVIDINLKANFILNREAIKKMIQKRYGRIINISSIVGIAGNPGQANYCASKAGLIGMTKSLSYEVATRGITVNAVAPGFIKSDMTDKLNEKQREAIVQKIPLGTYGIPEDVAYAVAFLASNNASYITGQTLHVNGGMLMV
notes: also called 3-ketoacyl-(ACP) reductase; 3-oxoacyl-(acyl-carrier-protein) reductase; not shown: His6, N-terminal, kept
  stoichiometry N: 4
